Experimental findings from patent US20230406922A1 (SIMCERE ZAIMING PHARMACEUTICAL, published 2023) are described below.

The target of assay [1] is T1, monkey CD19, full length, on HEK293T cells (monkey, UniProt P15391 20-556 (human entry)).
T1 construct: The entry holds the signal peptide; also called HEK293T-monkey CD19
T1 chain: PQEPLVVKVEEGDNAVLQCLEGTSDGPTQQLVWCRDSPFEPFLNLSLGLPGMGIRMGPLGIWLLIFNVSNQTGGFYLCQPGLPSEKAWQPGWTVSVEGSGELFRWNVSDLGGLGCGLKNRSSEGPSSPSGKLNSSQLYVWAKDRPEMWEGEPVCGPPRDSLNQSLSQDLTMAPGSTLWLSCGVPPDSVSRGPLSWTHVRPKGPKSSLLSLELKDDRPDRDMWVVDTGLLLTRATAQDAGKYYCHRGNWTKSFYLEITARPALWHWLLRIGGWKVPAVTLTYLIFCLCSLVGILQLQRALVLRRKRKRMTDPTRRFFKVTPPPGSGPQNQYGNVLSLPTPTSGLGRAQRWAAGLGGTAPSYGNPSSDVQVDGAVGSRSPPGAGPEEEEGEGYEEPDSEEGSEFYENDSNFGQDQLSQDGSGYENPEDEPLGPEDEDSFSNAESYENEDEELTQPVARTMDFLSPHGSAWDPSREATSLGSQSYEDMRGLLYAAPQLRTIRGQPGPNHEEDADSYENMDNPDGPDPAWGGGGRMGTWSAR
In words: FACS on HEK293T-monkey CD19 cells. How it is done: (§1) For suspension cells Raji, the medium supernatant was discarded by direct centrifugation, and the cell pellet was washed twice with PBS. After cell counting of the cells obtained in the last step, the cell pellet was resuspended to 2×10⁶ cells/mL with a blocking solution [PBS+2% (w/w) BSA] and added into a 96-well FACS reaction plate at 50 μL/well. […] After the plate was centrifuged and washed 5 times with a PBS buffer, the results were assayed and analyzed by FACS (FACS Canto™, purchased from BD Biosciences). Data analysis was performed by software (CellQuest) to obtain the mean fluorescence intensity (MFI) of the cells. Then, analysis was performed by software (GraphPad Prism8), data were fitted, and EC₅₀ values were calculated.
(§2) HEK293T-monkey CD19 cells were subjected to the FACS assay and data analysis according to the method described in Example 4.2.

Assay [2] concerns the target T1, monkey CD19, full length, on HEK293T …. The assay is described as follows: FACS titration on HEK293T-monkey CD19 cells. The method, then: as §1, §2
Assay [3] concerns the target T2, cynomolgus monkey CD19 on peripheral blood B cells (cynomolgus monkey (Macaca fascicularis), UniProt A0A2K5W8L9 20-557).
T2 construct: whole, on cells; also called cynomolgus monkey B cells
T2 sequence: T1 chain
In words: FACS on cynomolgus monkey PBMC, gated on CD20-positive B cells. The method, then:
Monkey peripheral blood mononuclear cells were extracted from fresh cynomolgus monkey peripheral blood (purchased from Shanghai Medicilon Inc.) according to Ficoll-Paque Plus (purchased from GE Healthcare, Cat. No. 171440-02). […] The cells were incubated at room temperature for 1 h. […] The cells were incubated at room temperature for 30 min in the dark, washed 5 times, gently resuspended in PBS, and assayed and analyzed by FACS (FACS Canto™, purchased from BD Biosciences), in which CD20 was used as a marker for B cells.

The next assay deals with T3, murine CD19 protein (murine, UniProt P25918 19-287, limits assumed).
T3 construct: also called mouse CD19-his protein
T3 sequence (looked up): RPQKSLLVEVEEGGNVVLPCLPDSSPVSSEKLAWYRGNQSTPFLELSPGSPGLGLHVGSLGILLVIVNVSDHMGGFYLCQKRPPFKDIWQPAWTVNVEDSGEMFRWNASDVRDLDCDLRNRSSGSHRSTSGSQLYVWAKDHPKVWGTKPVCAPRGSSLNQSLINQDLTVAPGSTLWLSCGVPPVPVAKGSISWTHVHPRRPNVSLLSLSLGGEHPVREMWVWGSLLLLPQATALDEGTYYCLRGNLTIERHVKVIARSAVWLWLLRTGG
The assay is described as follows: ELISA, murine CD19 coated. For orientation: ELISA stands for enzyme-linked immunosorbent assay.

Another assay concerns the target monkey CD19-his protein (monkey). The assay is described as follows: ELISA, monkey CD19 coated. How it is done:
After incubation for 2 h at 37° C., the plate was washed 3 times with PBS. […] After incubation for 1 h at 37° C., the plate was washed 5 times with PBS. A TMB substrate was added at 50 μL/well. After incubation at room temperature for 10 min, a stop solution (1.0 N HCl) was added at 50 μL/well. The OD450 nm values were read on an ELISA microplate reader (Multimode Plate Reader, EnSight, purchased from Perkin Elmer). […] The negative control antibody mIgG1 was an antibody against hen egg lysozyme, anti-hel-mIgG1 (purchased from Biointron, Cat. No. B118301), and the data in the table were OD450 nm values.
IgG control was mIgG1, S003-NB151-89 was a clone that is selected from a library constructed by peripheral blood collected from Alpaca immunized by human CD19-His and can bind to a monkey CD19-His protein, and was used as a positive control, and the data in the table were OD450 nm values.

B1: 9G8-mIgG1 (antibody, V domains shown)
VH: EVQLVQSGAEVKKPGESLKISCKGSGYSFTSYWIGWVRQMPGKGLEWMGIIYPGDSDTRYSPSFQGQVTISADKSISTAYLQWSSLKASDTAMYYCARGVSGIYNLHGFDIWGQGTLVTVSS
VL: DIQMTQSPSSLSASVGDRVTITCRASQSISSYLNWYQQKPGKAPKLLIYAASSLQSGVPSRFSGSGSGTDFTLTISSLQPEDFATYYCQQGRFGSPFTFGQGTKVEIKR
notes: Control anti-CD19 antibody with monkey cross-activity
For B1, in assay [1], it took 2.08 nM to reach a half-maximal effect (EC50) and the “maximum mean fluorescence intensity” value is 19500 MFI. Besides, the “EC50 (read off the curve)” value in assay [2] is about 0.4 nM. Moreover, in assay [3], the “proportion of positive cells to B cells (%) at 1 nM” value came to 3%, the “proportion of positive cells to B cells (%) at 10 nM” value worked out at 14% and the “proportion of positive cells to B cells (%) at 100 nM” value came out at 71%.

B2: FMC63-mIgG1 (antibody, V domains shown)
VH: EVKLQESGPGLVAPSQSLSVTCTVSGVSLPDYGVSWIRQPPRKGLEWLGVIWGSETTYYNSALKSRLTIIKDNSKSQVFLKMNSLQTDDTAIYYCAKHYYYGGSYAMDYWGQGTSVTVSS
VL: DIQMTQTTSSLSASLGDRVTISCRASQDISKYLNWYQQKPDGTVKLLIYHTSRLHSGVPSRFSGSGSGTDYSLTISNLEQEDIATYFCQQGNTLPYTFGGGTKLEITR
notes: Parent murine antibody; also called murine antibody FMC63
For B2, in the assay with murine CD19 protein, the “OD450 at 0.0001 nM” value turned out to be 0.06 OD450, the “OD450 at 0.001 nM” value came out at 0.06 OD450, the “OD450 at 0.01 nM” value was determined as 0.05 OD450 and the “OD450 at 0.10 nM” value came to 0.05 OD450. In addition, in the assay with murine CD19 protein, the “OD450 at 1.00 nM” value was determined as 0.06 OD450, the “OD450 at 10.00 nM” value was 0.07 OD450 and the “OD450 at 100.00 nM” value turned out to be 0.1 OD450. In addition, in the assay with monkey CD19-his protein, the “OD450 at 0.0001 nM” value was found to be 0.05 OD450, the “OD450 at 0.001 nM” value was 0.05 OD450, the “OD450 at 0.01 nM” value was found to be 0.05 OD450 and the “OD450 at 0.10 nM” value came to 0.05 OD450. Further, in the assay with monkey CD19-his protein, the “OD450 at 1.00 nM” value was 0.05 OD450, the “OD450 at 10.00 nM” value was 0.05 OD450 and the “OD450 at 100.00 nM” value was 0.09 OD450.

A word on the EC50: it is the concentration needed to bring the measured effect to its halfway point. In general, EC50 (read off the curve) refers to the concentration that produces a half-maximal response.
